According to US8975044B2, “Polynucleotides encoding for frizzled-binding agents and uses thereof” (OncoMed Pharmaceuticals, Inc., priority 2008, dated 2015):
Residue numbers refer to the chain shown, from its start.

B1: 18R5: human anti-FZD antibody; VH SEQ ID NO:10 (as 18R8), VL SEQ ID NO:14; binds FZD1, 2, 5, 7, 8 (antibody, V domains shown)
VH: EVQLVESGGGLVQPGGSLRLSCAASGFTFSHYTLSWVRQAPGKGLEWVSVISGDGSYTYYADSVKGRFTISSDNSKNTLYLQMNSLRAEDTAVYYCARNFIKYVFANWGQGTLVTVSS
VL: DIELTQPPSVSVAPGQTARISCSGDNIGSFYVHWYQQKPGQAPVLVIYDKSNRPSGIPERFSGSNSGNTATLTISGTQAEDEADYYCQSYANTLSLVFGGGTKLTVLG
modifications: 18R5/18R8 heavy chain variable region (VH); 18R5 light chain variable region (VL)
B2: 18R8: human anti-FZD antibody from phage display; VH SEQ ID NO:10, VL SEQ ID NO:12; binds FZD1, 2, 5, 7, 8 (antibody, V domains shown)
VH: B1 VH
VL: DIELTQPPSVSVAPGQTARISCSGDKLGKKYASWYQQKPGQAPVLVIYEKDNRPSGIPERFSGSNSGNTATLTISGTQAEDEADYYCSSFAGNSLEVFGGGTKLTVLG
modifications: 18R5/18R8 heavy chain variable region (VH); 18R8 light chain variable region (VL)

Assays:
ACTA2 = ACTA2 gene expression in treated OMP-PN4 tumors by microarray; type: in vivo, NOD/SCID mice; conditions: 10 mg/kg once a week for 6 weeks; tumor stroma
Protocol: (§1) As described in Example 7 above, OMP-PN4 tumor-bearing NOD/SCID mice were treated with control Ab (LZ-1), 18R5, gemcitabine, or the combination of 18R5 and gemcitabine once a week for 6 weeks. The antibodies were administered at a concentration of 10 mg/kg. After they were harvested, the tumors from that experiment were analyzed for the expression of Wnt target genes at both the RNA and protein levels, using microarray and IHC, respectively.
Total RNA was extracted from the tumors, amplified, and subjected to microarray analysis. Total RNAs were amplified using the Ovation RNA Amplification System V2 (NuGEN, San Carlos, Calif.). Resulting amplified, antisense ss-cDNA was fragmented and biotinylated using the FL-Ovation cDNA Biotin Module V2 (NuGEN) for use on Affymetrix chips. Affymetrix HG-U133 plus 2 or MG 430 2.0 oligonucleotide microarrays were used in these experiments (performed at Almac Diagnostics, Durham, N.C.). […] The quality of the cDNA and the fragmented cDNA were assessed by spectrophotometer and the Bioanalyzer before the array hybridization. The scanned raw chip data were quantified and scaled using the GCOS software package (Affymetrix) and subjected to a comprehensive assessment of Gene Chip Quality Control recommended by Affymetrix to detect any chips defects and outliers, which were excluded from the subsequent data analysis. […]

PN4 tumors = assay: Alcian blue staining of treated PN4 tumor sections; type: in vivo, mice; conditions: relative to controls and the gemcitabine alone group; data not shown
Excerpt: Another characteristic of endocrine, secretory or ductal cells is the production of mucin and these cells can be detected by alcian blue staining (van Es et al. 2005. Nature 435 959-63). It was observed during harvesting and processing of tumors that the 18R5 treated tumors were much more mucinous than control treated tumors. Therefore, PN4 tumors sections from mice treated with control antibody, gemcitabine alone, 18R5 alone, or 18R5 plus gemcitabine were stained with alcian blue.

OMP-C28 tumors = assay: Flow cytometry of ESA and CD44 on cells of treated OMP-C28 tumors; type: in vivo, NOD/SCID mice; conditions: tumors harvested day 48; control antibody 64%
Protocol: Control and treated tumors from the OMP-C28 xenograft study described above (Example 7) were harvested at the end of the study (day 48). The tumors were processed and dissociated into single cells. Tumor cells were then incubated with biotinylated mouse antibodies (α-mouse CD45-biotin 1:200 dilution and rat α-mouse H2 Kd-biotin 1:100 dilution, BioLegend, San Diego, Calif.) on ice for 30 min followed by addition of streptavidin-labeled magnetic beads (Invitrogen, Carlsbad, Calif.) to remove mouse cells with the aid of a magnet.
For analysis of cell surface markers, the single tumor cell suspension was stained with anti-ESA (Biomeda) and anti-CD44 (BD Biosciences) antibodies which were directly conjugated to fluorochromes. Dead cells were excluded by using the viability dye DAPI. Flow cytometry was performed using a FACS Aria (Becton Dickinson). Side scatter and forward scatter profiles were used to eliminate cell clumps.

[1] = tested on: smooth muscle actin (SMA); assay: Smooth Muscle Actin alpha immunofluorescence on treated OMP-PN4 tumors; type: in vivo, NOD/SCID mice; conditions: 10 mg/kg once a week for 6 weeks; vs control mAb
Protocol: as §1
In preparation for Smooth Muscle Actin alpha (SMAa) immunofluorescence, tumor tissue was frozen using OCT. 4 micron sections were obtained and stored frozen at −80° C. For SMAa staining, tissue was fixed using chilled acetone at −20° C. for 15 minutes and then allowed to dry and come to room temperature and then marked using a hydrophobic PAP pen. Slides were then washed using phosphate buffered saline (PBS). Tissue was blocked using normal horse serum R.T.U. (Vector Labs) for 2 hours at room temperature. Primary antibody staining was performed with 1:10,000 dilution of FITC-conjugated Smooth muscle actin alpha antibody (cline 1A4, #F3777, SIGMA) for 1 hour. Sections were washed 3 times using PBS containing 0.1% triton X-100. Slides were then air-dried and then mounted using Hard set mounting medium containing DAPI (vectashied H-500).

FZD8 [2] = target: T1, FZD8 (Homo sapiens, UniProt Q9H461, S109Q); assay: Epitope mapping by FACS on FZD8 Fri domain variants on HEK293 cells; type: binding; conditions: amino acid 109S changed to 109Q
T1 construct: N-terminus of the Fri domain of FZD8 in turn fused to the transmembrane domain and intracellular domain of CD4 protein; expressed in transfected cells; host or cells: HEK293
T1 sequence (Q9H461 28-158 S109Q): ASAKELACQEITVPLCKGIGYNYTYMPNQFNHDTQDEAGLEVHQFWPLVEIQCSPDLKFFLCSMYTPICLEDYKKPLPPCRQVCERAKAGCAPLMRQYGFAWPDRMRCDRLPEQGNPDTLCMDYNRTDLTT
Protocol: (§2) To identify the FZD epitope recognized by the 18R8 IgG antibody, epitope mapping was performed. Flow cytometry analysis of cell surface expressed FZD was utilized to measure antibody binding. Mammalian expression plasmid vectors comprising a CMV promoter upstream of polynucleotides that encode an N-terminal signal sequence FLAG epitope tag fused to the N-terminus of the Fri domain of FZD8 in turn fused to the transmembrane domain and intracellular domain of CD4 protein were generated by standard recombinant technology. This expression construct allows expression of the FZD8 Fri domain on the cell surface, as well as expression of a FLAG epitope tag to monitor expression. Site-direct mutagenesis was then used to modify selected amino acids within the extracellular domain of FZD. HEK293 cells were co-transfected with expression vectors encoding the FZD and the transfection marker GFP. Forty-eight hours post-transfection, cells were collected in suspension and incubated on ice with anti-FZD antibody or control IgG to detect background antibody binding. The cells were washed and primary antibodies detected with anti-antibody secondary antibodies conjugated to a fluorescent chromophore. Labeled cells were then analyzed by flow cytometry to measure the binding of anti-FZD antibody to cell surface FZD.
(§3) Epitope mapping for the anti-FZD antibody 44R24 was performed in a manner similar to that described above in Example 5 for the antibodies 18R8 and 18R5. The ability of 44R24 to bind to a similar epitope as 18R8 was assessed by flow cytometry using a series of amino acid variants of FZD8 previously shown to disrupt binding of 18R8 (see Example 5 and FIGS. 6 and 7).

FZD8 [3] = target: T2, FZD8 (Homo sapiens, UniProt Q9H461, D83Q/P82S); assay: as above; type: binding; conditions: amino acid residues 82-83 mutated from PD to SQ
T2 construct: N-terminus of the Fri domain of FZD8 in turn fused to the transmembrane domain and intracellular domain of CD4 protein; expressed in transfected cells; host or cells: HEK293
T2 sequence (Q9H461 28-158 P82S/D83Q): T1 sequence (Q9H461 28-158 S109Q) with P55S, D56Q, Q82S
Protocol: as §2, §3

Molecule	ACTA2 expression (ACTA2)	alcian blue staining (PN4 tumors)	bulk tumor population expressing both ESA and CD44 at high levels (double positive) (OMP-C28 tumors) [%]	Smooth Muscle Actin alpha (SMAa) amount [1]	binding to FZD8 variant (FZD8 [2])	binding to FZD8 variant (FZD8 [3])
B1	decreased levels of ACTA2 expression	clear increase in alcian blue staining	40	Reduced amounts of SMAa		
B2					no appreciable effect	largely unaffected
